Tests used:
[1] = biological target: T1, cynomolgus CD200R1 with dual His-tags (cynomolgus, UniProt G7NZT0 25-266); assay: SPR (Biacore CM5), His-tagged antigen captured by anti-histidine antibody, antibody as analyte, 1:1 Langmuir fit
T1 construct: Captured on the SPR chip by an anti-histidine antibody; also called CCD200R1-his; cCD200R1-his; not shown: dual His-tags
T1 sequence: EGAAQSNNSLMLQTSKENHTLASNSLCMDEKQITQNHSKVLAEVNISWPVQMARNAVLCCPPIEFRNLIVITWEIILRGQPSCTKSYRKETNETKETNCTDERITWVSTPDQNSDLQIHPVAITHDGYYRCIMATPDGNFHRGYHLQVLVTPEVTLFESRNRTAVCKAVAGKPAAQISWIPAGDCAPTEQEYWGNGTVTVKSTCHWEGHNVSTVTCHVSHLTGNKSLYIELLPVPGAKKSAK

[2] = biological target: T2, human CD200R1 with dual His-tags (human, UniProt Q8TD46 25-265); assay: as above
T2 construct: Captured on the SPR chip by an anti-histidine antibody; also called hCD200R1-his; not shown: dual His-tags
T2 sequence (looked up): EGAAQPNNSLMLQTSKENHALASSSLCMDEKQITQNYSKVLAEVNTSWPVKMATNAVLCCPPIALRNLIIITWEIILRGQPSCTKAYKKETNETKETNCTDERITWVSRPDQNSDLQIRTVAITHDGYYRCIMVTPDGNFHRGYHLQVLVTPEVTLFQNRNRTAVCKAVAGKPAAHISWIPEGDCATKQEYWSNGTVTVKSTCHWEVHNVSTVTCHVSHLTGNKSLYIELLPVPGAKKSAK

[3] = biological target: T3, human CD200R1 expressed on cells (Jurkat-CD200R1, U937-CD200R1, HH cells) (human, UniProt Q8TD46 25-348); assay: cell-based or functional assay
T3 sequence (looked up): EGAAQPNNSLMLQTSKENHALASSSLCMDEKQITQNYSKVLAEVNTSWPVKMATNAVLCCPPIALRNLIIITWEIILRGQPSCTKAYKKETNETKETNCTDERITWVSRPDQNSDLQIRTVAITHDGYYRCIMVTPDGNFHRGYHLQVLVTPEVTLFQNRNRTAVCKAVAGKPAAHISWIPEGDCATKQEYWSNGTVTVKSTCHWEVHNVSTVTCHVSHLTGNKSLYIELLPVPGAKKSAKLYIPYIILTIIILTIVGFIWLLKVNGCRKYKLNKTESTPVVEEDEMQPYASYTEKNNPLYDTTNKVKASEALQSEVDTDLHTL

[4] = biological target: T4, human CD200R1 recombinant protein (construct not stated) (human, UniProt Q8TD46 27-266, limits assumed); assay: ELISA on human CD200R1, normalized absorbance at 450 nm, 0.0192-300 nM; panel 'Human CD200R1'
T4 sequence (looked up): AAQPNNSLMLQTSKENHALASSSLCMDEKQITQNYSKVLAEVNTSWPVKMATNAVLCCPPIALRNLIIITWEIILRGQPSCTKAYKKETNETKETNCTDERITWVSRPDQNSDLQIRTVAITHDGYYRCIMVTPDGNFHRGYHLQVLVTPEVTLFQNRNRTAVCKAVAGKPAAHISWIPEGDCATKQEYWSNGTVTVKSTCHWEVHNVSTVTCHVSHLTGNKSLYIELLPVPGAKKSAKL

[5] = biological target: T3, human CD200R1 expressed on cells …; assay: flow cytometry, U937-CD200R cells
Procedure: (§1) Two additional wells were treated with 10 μl of mouse IgG1K (BD, #555751) and 5 μl of commercial CD200R1 antibody (Biolegend, #329308) to determine CD200R1 expression on the cell line surface for cell quality control.
(§2) The antibodies were serially diluted 10-fold from a maximum concentration of 100 nM to 10 nM, 1 nM, […], and were added to the pre-seeded cells. After reaction for 1 hour at 4° C., the cells were treated with Alexa-647 goat anti-human IgG (H+L) cross-adsorbed secondary antibody (Invitrogen, #A21445) and incubated for an additional 30 minutes at 4° C. After washing twice with FACS buffer, flow cytometry was performed using a Novocyte Flow cytometer (Agilent). Using GraphPad Prism software, the EC₅₀ was determined using a nonlinear graph model of log (agonist) vs. response-variable slope, as shown in Table 32.

[6] = biological target: T3, human CD200R1 expressed on cells …; assay: cell-based or functional assay; remark: listed apart in the source
[7] = biological target: T3, human CD200R1 expressed on cells …; assay: flow cytometry, HH cells
Procedure: as §1, §2

B1: P001009 (IgG) (antibody, V domains shown)
VH: EVQLLESGGGLVQPGGSLRLSCAASGFTFSSYDMSWVRQAPGKGLEWVSWISHGGGSIYYADSVKGRFTISRDNSKNTLYLQMNSLRAEDTAVYYCARDAPAYSAPLFDYWGQGTLVTVSS
VL: QSVLTQPPSASGTPGQRVTISCSGSSSNIGNNAVNWYQQLPGTAPKLLIYYDSNRPSGVPDRFSGSKSGTSASLAISGLRSEDEADYYCAAWDDSLSGYVFGGGTKLTVL
notes: also called P001009 WT; P001009 wt
Kd [1]: 2080 pM
koff [1]: 0.0117 s⁻¹
kon [1]: 5.63e+06 M⁻¹ s⁻¹
Kd [2]: 47.5 pM
koff [2]: 0.000134 s⁻¹
kon [2]: 2.81e+06 M⁻¹ s⁻¹
EC50 (nM), degree of signal transduction by the Dok2 protein [3]: 1.57 nM
EC50 (read off the curve) [4]: ~2000 pM
EC50 [5]: 410 pM
IC50 (nM) of IL-6 inhibition, LPS-treated U937-CD200R1 cells [6]: 0.35 nM
IC50 (nM) of TNF-α inhibition, LPS-treated U937-CD200R1 cells [6]: 0.62 nM
EC50 [7]: 190 pM

— patent US20260263521A1 (AIMED BIO, published 2026)
